Assay results from patent US20240101635A1 (AKSTON BIOSCIENCES, published 2024).
Read-outs that look alike come from different tables or passages of the source.

How the values were obtained:
human insulin receptor [1] = target: T1, human insulin receptor (human, UniProt P06213 28-1382); experiment: competition with biotinylated RHI on IM-9 cells, flow cytometry, 4 C
T1 construct: whole, on cells; Endogenous receptor on IM-9 cells; also called IR
Protocol: (§1) 40 μL of an IM-9 cell suspension (8×10⁶ cells/mL) was then added to each well by multichannel pipette, mixed again gently and incubated on ice for 30 min to allow competitive binding on the insulin receptor on IM-9 cells. Cells were then washed twice with 275 μL of ice-cold FACS wash buffer (HBSS/2 mM EDTA/0.1% Na-azide+0.5% horse serum) by centrifuging the V-bottom plate at 3000 rpm for 3 min and aspirating the supernatant. Cells were then resuspended in 40 μL of FACS staining medium containing 1:100 diluted Streptavidin-PE (Life Technologies) for 20 min on ice. Cells were then washed once with 275 μL of ice-cold FACS buffer and finally fixed with 3% paraformaldehyde for 10 min at room temp. Cells were then washed once with 275 μL of ice-cold FACS buffer and resuspended in 250 μl of FACS buffer for analysis.
The V-bottom plates containing cells were then analyzed on a Guava 8-HT flow cytometer (Millipore). Biotinylated-RHI binding to insulin receptor was quantitated by the median fluorescence intensity (MFI) of the cells on the FACS FL-2 channel for each concentration of the test compound. Control wells were labeled only with biotinylated-RHI and were used to calculate the percent (%) inhibition resulting from each test compound concentration. The % inhibition by test compounds of biotinylated-RHI binding on IM-9 cells was plotted against log concentrations of the test compound, and the resulting IC50 values were calculated using GraphPad Prism (GraphPad Software, La Jolla, CA) for the test compounds. Lower IC50 values of the test compound therefore indicate greater levels of biotinylated-RHI inhibition at lower concentrations indicating stronger binding of the insulin-Fc fusion protein to the insulin receptor. A control compound, such as unlabeled recombinant human insulin (RHI) was also used as an internal standard to generate an RHI IC50 against which a given compound IC50 could be ratioed (IC50(compound)/IC50(RHI)). Lower IC50 ratios have more similar binding to RHI (stronger binding to insulin receptor), while higher IC50 ratios have weaker binding to the insulin receptor relative to RHI.

human insulin receptor [2] = target: T1, human insulin receptor; experiment: as above; remark: listed apart in the source
Protocol: as §1
The V-bottom plates containing cells were then analyzed on a Guava 8-HT flow cytometer (Millipore). Biotinylated-RHI binding to insulin receptor was quantitated by the median fluorescence intensity (MFI) of the cells on the FACS FL-2 channel for each concentration of the test compound. […] The % inhibition by test compounds of biotinylated-RHI binding on IM-9 cells was plotted against log concentrations of the test compound, and the resulting IC50 values were calculated using GraphPad Prism (GraphPad Software, La Jolla, CA) for the test compounds. […]

biotinylated canine FcRn = biotinylated canine FcRn (canine, UniProt A0A8I3PFR8 25-347, biotinylated (site not stated)); experiment: ELISA pH 5.5, fusion protein coated, biotinylated canine FcRn titrated
biotinylated canine FcRn, sequence (A0A8I3PFR8 entry or part of it): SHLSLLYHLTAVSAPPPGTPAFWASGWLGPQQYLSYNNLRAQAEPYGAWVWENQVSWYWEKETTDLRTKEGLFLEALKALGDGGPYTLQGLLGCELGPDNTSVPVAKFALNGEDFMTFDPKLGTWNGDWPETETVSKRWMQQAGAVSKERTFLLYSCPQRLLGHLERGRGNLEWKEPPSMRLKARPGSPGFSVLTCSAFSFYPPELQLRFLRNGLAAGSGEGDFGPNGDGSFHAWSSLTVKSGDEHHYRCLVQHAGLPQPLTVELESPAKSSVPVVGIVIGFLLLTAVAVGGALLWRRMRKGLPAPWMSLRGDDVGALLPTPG
Protocol: Insulin-Fc fusion proteins comprising Fc fragments of canine or feline origin were diluted to 10 μg/ml in sodium bicarbonate pH 9.6 buffer and coated in duplicate on Maxisorb ELISA plate strips for 1-2 hours at RT. The strips were then washed 4 times with PBST (PBS/0.1% Tween-20) buffer and blocked with Superblock blocking reagent (ThermoFisher). Strips for FcRn binding were then washed again twice with pH 5.5 MES/NaCl/Tween (50 mM MES/l50 mM NaCl/0.1% Tween-20) buffer before addition of the FcRn reagent (biotinylated canine FcRn; Immunitrack). […] Serial dilutions (1:3× dilutions) of biotinylated FcRn reagent were prepared in pH 5.5 MES/NaCl/Tween/10% Superblock buffer at concentrations from 1000 ng/ml to 0.45 ng/ml and loaded at 100 μL/well using a multichannel pipettor onto the strips coated with the insulin-Fc fusion protein compounds. The assay plate was then incubated for 1 hour at room temperature. FcRn binding strips were washed 4 times with pH 5.5 MES/NaCl/Tween buffer and then loaded with 100 μl/well […] diluted 1:10000 in pH 5.5 MES/NaCl/10% Superblock buffer. After incubating for 45 minutes, strips were washed again 4 times with pH 5.5 MES/NaCl/Tween buffer. TMB was finally added to reveal the bound biotinylated-canine FcRn reagent, and the color development was stopped with the ELISA stop reagent. The plate was read in an ELISA plate reader at a wavelength of 450 nm. The OD values (proportional to the binding of canine-FcRn to the insulin-Fc fusion protein test compounds) were plotted against log concentrations of FcRn added to each well to generate binding curves using GraphPad Prism software. EC50 values for each binding curve were calculated to compare between different compounds.

[3] = target: T2, biotinylated recombinant human Fc(gamma) receptor I (human, UniProt P12314 16-288, biotinylated (site not stated)); experiment: ELISA, fusion protein coated, biotinylated rhFc(gamma)RI at 3000 ng/mL, pH 7.4
T2 construct: Bought reagent, used as surrogate for canine/feline Fc(gamma)RI; also called rhFc(gamma) receptor I; Fc(gamma)RI
T2 sequence (P12314 16-288 limits assumed): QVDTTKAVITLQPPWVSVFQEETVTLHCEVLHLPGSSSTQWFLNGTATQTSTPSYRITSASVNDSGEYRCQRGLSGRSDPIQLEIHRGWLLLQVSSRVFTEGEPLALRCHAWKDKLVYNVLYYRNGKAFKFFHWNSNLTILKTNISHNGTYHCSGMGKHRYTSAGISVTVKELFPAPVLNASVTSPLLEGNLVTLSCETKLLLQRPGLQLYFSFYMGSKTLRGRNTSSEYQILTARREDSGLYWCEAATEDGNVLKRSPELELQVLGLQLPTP
Protocol: The binding of insulin-Fc fusion proteins to the Fc(gamma) receptor I at pH 7.4 was conducted using an ELISA assay as follows. Since neither canine nor feline Fc(gamma) receptor I was not commercially available, human Fc(gamma) receptor I (i.e., rhFc(gamma) receptor I) was used as a surrogate mammalian receptor. Insulin-Fc compounds were diluted to 10 μg/mL in sodium bicarbonate buffer at pH 9.6 and coated on Maxisorp (Nunc) microtiter plates overnight at 4° C., after which the microplate strips were washed 5 times with PBST (PBS/0.05% Tween-20) buffer and blocked with Superblock blocking reagent (ThermoFisher). Serial dilutions of biotinylated rhFc(gamma) receptor I (recombinant human Fc(gamma)R-I; R&D Systems) were prepared in PBST/10% Superblock buffer from 6000 ng/mL to 8.2 ng/mL and loaded at 100 μL/well onto the microplate strips coated with insulin-Fc fusion protein. The microtiter plate was incubated for 1 hour at room temperature after which the microplate strips were washed 5 times with PBST and then loaded with 100 μL/well of streptavidin-HRP diluted 1:10000 in PBST/10% Superblock buffer. After incubating for 45 min, the microplate strips were washed again 5 times with PBST. TMB was added to reveal the bound Fc(gamma) receptor I proteins and stopped with ELISA stop reagent (Boston Bioproducts). The plate was read in an ELISA plate reader at 450 nm, and the OD values (proportional to the binding of rhFc(gamma) receptor I to insulin-Fc protein) were plotted against log concentrations of rhFc(gamma) receptor I added to each well to generate binding curves using GraphPad Prism software.
Finally, select compounds were tested for their likelihood to interact with the immune system by measuring their Fc(gamma) receptor binding activity according to the procedure of Example 8. Table 19 compares the Fc(gamma) receptor I binding of these insulin-Fc fusion proteins with the Fc(gamma) receptor binding of the insulin-Fc fusion protein of SEQ ID NO: 52.

human insulin receptor [4] = target: T1, human insulin receptor; experiment: competition with biotinylated RHI on IM-9 cells, flow cytometry, 4 C; remark: listed apart in the source
Protocol: Cultures of IM-9 cells were centrifuged at 250×g (˜1000 rpm) for 10 min to pellet the cells. Cells were washed once with HBSS or PBS buffer, resuspended in cold FACS staining medium (HBSS/2 mM EDTA/0.1% Na-azide+4% horse serum) to a concentration of 8×10⁶ cells/mL and kept on ice or 4° C. until test solutions were made. The insulin-Fc protein was diluted in FACS buffer in 1:3 serial dilutions as 2× concentrations in 1.2 mL tubes (approx. 60 μL volume of each dilution), and the solutions were kept cold on ice until ready for pipetting.
40 μL of an IM-9 cell suspension (8×10⁶ cells/mL) was then added to each well by multichannel pipette, mixed again gently and incubated on ice for 30 min to allow competitive binding on the insulin receptor on IM-9 cells. […]
The V-bottom plates containing cells were then analyzed on a Guava 8-HT flow cytometer (Millipore). Biotinylated-RHI binding to insulin receptor was quantitated by the median fluorescence intensity (MFI) of the cells on the FACS FL-2 channel for each concentration of the test compound. […] The % inhibition by test compounds of biotinylated-RHI binding on IM-9 cells was plotted against log concentrations of the test compound, and the resulting IC50 values were calculated using GraphPad Prism (GraphPad Software, La Jolla, CA) for the test compounds.

T1 sequence (P06213 28-1382): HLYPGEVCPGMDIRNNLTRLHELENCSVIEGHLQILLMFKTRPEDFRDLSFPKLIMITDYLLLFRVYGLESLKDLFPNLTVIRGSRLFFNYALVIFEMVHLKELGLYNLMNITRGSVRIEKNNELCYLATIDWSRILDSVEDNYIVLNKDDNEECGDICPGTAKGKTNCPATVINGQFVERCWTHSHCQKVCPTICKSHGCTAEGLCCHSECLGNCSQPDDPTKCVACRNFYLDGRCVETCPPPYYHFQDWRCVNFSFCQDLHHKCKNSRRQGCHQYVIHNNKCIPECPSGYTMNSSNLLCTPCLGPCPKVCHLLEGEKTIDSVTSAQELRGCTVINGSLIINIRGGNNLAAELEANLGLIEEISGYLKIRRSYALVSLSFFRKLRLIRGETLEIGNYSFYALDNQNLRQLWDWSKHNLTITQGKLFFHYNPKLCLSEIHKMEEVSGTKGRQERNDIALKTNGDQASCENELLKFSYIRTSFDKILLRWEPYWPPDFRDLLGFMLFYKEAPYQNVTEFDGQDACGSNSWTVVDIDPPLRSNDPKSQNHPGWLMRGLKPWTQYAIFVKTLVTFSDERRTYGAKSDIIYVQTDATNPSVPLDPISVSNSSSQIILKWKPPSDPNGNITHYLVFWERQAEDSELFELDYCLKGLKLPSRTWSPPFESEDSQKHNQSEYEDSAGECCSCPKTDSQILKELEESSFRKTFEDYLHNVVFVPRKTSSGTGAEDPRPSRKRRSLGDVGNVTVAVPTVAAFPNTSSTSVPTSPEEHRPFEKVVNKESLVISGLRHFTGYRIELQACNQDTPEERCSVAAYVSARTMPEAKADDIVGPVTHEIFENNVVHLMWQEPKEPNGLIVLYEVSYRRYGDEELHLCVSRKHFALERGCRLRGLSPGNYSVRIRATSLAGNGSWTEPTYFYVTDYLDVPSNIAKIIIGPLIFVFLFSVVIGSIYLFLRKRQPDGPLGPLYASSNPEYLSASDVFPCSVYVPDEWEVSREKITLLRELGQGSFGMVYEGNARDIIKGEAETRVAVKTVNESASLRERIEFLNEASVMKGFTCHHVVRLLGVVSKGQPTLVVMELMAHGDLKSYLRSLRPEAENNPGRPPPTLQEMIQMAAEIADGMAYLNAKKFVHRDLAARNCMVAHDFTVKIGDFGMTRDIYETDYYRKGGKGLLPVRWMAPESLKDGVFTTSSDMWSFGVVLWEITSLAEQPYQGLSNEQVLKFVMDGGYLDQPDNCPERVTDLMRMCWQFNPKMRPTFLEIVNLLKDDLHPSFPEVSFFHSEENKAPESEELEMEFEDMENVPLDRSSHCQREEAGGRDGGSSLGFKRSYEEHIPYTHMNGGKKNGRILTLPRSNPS

- IC50 (human insulin receptor [1]): 2340 nM
- IC50 (human insulin receptor [2]): 2340 nM
- EC50 (biotinylated canine FcRn): 0.599 µg/mL
- OD450 nm Minus Assay Background [3]: 0.311 OD450
- OD450 nm at a Fc(gamma)RI concentration of 3000 (ng/mL) [3]: 0.368 OD450
- Ratio to SEQ ID NO: 52 [3]: 0.84 ratio
- IC50 (human insulin receptor [4]): 2340 nM
B1: insulin-Fc fusion protein of SEQ ID NO: 32 (Fc fusion)
chain: FVNQHLCGSHLVEALELVCGERGFHYGGGGGGSGGGGGIVEQCCTSTCSLDQLENYCGGGGGQGGGGQGGGGQGGGGGDCPKCPAPEMLGGPSVFIFPPKPKDTLLIARTPEVTCVVVDLDPEDPEVQISWFVDGKQMQTAKTQPREEQFNGTYRVVSVLPIGHQDWLKGKQFTCKVNNKALPSPIERTISKARGQAHQPSVYVLPPSREELSKNTVSLTCLIKDFFPPDIDVEWQSNGQQEPESKYRTTPPQLDEDGSYFLYSKLSVDKSRWQRGDTFICAVMHEALHNHYTQESLSHSPG
notes: homodimer; also called 218d
